# Reference: patent US12371456B2, “Proteins for the treatment of epithelial barrier function disorders” (Genevive, Inc., priority 2017, dated 2025)
# What was measured:
# IL-23 = IL-23 production by monocytes in co-culture TEER assay (Luminex); format: cell-based, human; details: pre-incubated 6 hours prior to HK E. coli; p=0.80; FIG. 2B
# Description: Production of the pro-inflammatory cytokines TNF-α and IL-23 by monocytes was measured in the tissue culture supernatant from the basolateral chamber of the co-culture TEER assay performed in Example 2. Following TEER readings, the supernatants were centrifuged at 10,000 g for 5 minutes at 4° C. to remove cell debris. Luminex analysis was performed according to the manufacturer's instructions (Magpix instrument and xPonent software version 4.2; Luminex Corporation (Austin, TX)). Luminex analysis was performed to determine the pg/ml concentration of TNF-α and IL-23 produced by monocytes. Luminex analysis utilizes a bead-based system for quantification of multiple cytokines from a single sample. Like an ELISA, Luminex beads are coated with a capture antibody, and incubation with samples allows the target to bind to the capture antibody. Beads are washed and incubated with a fluorescently labeled detection antibody for quantification of bound target. Cytometric analysis is used to differentiate bead populations, which are loaded with differential fluorescent dyes, and to quantify cytokine levels by measuring detection antibody signal. TNF-α production in untreated cells and cells pre-incubated with SG-14 for 6 hours prior to HK E. coli treatment were normalized to pg/ml concentrations elicited by HK E. coli which was set to 1.0. […]
# muc2 = muc2 gene expression in epithelial cell monolayer (qRT-PCR); format: cell-based, human; details: SG-14 1 pg/ml (40 nM) 6 hours prior to HK E. coli for 24 hours; p=0.87; FIG. 4
# Description: Gene expression was measured in the epithelial cell monolayer from the apical chamber of the co-culture TEER assay described in Example 2. Total RNA was isolated from the epithelial cell monolayer, cDNA was synthesized. qRT-PCR was performed on cDNA generated from the HCT8 & HT29-MTX cells treated with SG-14 ([…]; 40 nM) for 6 hours prior to addition of HK E. coli for 24 hours. muc2 gene expression is graphed as mean fold change ±SEM. Statistical analysis was performed by a one-way ANOVA compared to HK E. coli and a Fishers LSD test was used for multiple comparisons.
# [1] = tested on: LPS binding protein (LBP); assay: DSS model: LPS binding protein (LBP) in serum by ELISA; format: in vivo, C57BL/6 mice; details: 50 nmoles/kg i.p. b.i.d., 2.5% DSS; FIG. 7
# Description: (§1) Eight-week old C57BL/6 mice were housed 5 animals were cage and given food and water ad libitum for 7 days. Following the 7-day acclimation period, treatments were initiated concurrently with addition of 2.5% DSS to the drinking water. […] The mice were treated with 2.5% dextran sodium sulfate (DSS) in their drinking water for 6 days. Treatments were continued with SG-14 or Gly2-GLP2 twice a day (b.i.d.) in the morning and evening (every 8 and 16 hr) with i.p. injections at 50 nmoles/kg. Fresh 2.5% DSS drinking water was prepared every 2 days.
# SG-14 was also assessed for its effects on the levels of LPS binding protein (LBP) in the blood of the DSS animal with and without SG-14 administration. LPS binding protein (LBP), which has been linked to clinical disease activity in subjects with inflammatory bowel disease, was also measured by ELISA in the serum of mice tested in the DSS model described in Example 7. […] Results are shown in FIG. 7, and are presented as mean f SEM. The graph in FIG. 7 represents data pooled from the single experiment (n=10).
# [2] = tested on: DSS model of inflammatory bowel disease; assay: DSS model: body weight; format: in vivo, C57BL/6 mice; details: 50 nmoles/kg i.p. b.i.d., 2.5% DSS; FIG. 8
# Description: as §1, with “SG-14 or […]-GLP2 twice a” for “SG-14 or Gly2-GLP2 twice a”, “2 days. Body weight was measured daily from mice included in the DSS model described in this Example. Percent change from starting weight on day 0 was determined for each mouse. […] The graph in FIG. 8 represents data pooled from the single experiment (n=10).” for “2 days.”
# [3] = tested on: DSS model of inflammatory bowel disease; assay: DSS model: gross pathology score; format: in vivo, C57BL/6 mice; details: FIG. 9
# Description: as §1, with “SG-14 or […]-GLP2 twice a” for “SG-14 or Gly2-GLP2 twice a”, “2 days. Gross pathology observations were made in mice included in the concurrent DSS model performed in this Example. […] The scoring system used was: (0)=no gross pathology, (1)=streaks of blood visible in feces, (2)=completely bloody fecal pellets, (3) bloody fecal material visible in cecum, (4) bloody fecal material in cecum and loose stool, (5)=rectal bleeding. The graph in FIG. 9 represents data pooled from the single experiment (n=10).” for “2 days.”
molecule,measurement,setting,value
"SG-14: Eubacterium eligens protein comprising SEQ ID NO:3; tested form expressed in E. coli, with exogenous GPLG at N-terminus and PHRD at C-terminus (protein, N-terminal GPLG and C-terminal PHRD) GCARNSTSTTTASGGETTITSAITKEDTDVTHADDAENYRVSITGDFTVTSDTSDGVTQSGSVYTITKAGEYTVTGLLSEGQLIVDAGNENEVTIVLNGTSITCSSGSPIYVKNASEVKIKSEENSFNEVIDNRNEATEDSSDDAGNAAIYATCDLKLVGKGALVVTGNYNNGIQSKDDLSIKNVIVKVTAVNNAVKVNDAVDIESGNIIAISAKGDGIKTSNSSISNKGNQKGIVTITSGNIDIYAACDGIDASYGADISGDGNLNIYTDTYSEYSEEVTSSGSSSGTSSGRDSSANKSASANTVSYVATSDTIANAPSGFGGGNMGSGNAPDMSNGNAPNMNGSSDRNKTGGNRPGMPGDFNESGNSSGQSYSTKGIKAESEINISGFTINICSTDDGIHANSDSGVLETGEDGKGTIVINGGSITISSGDDGMHADKQLDVNDGYINVVTSYEGLEAMTINLNGGKIYVYATDDGINACTGDGKTSPIVNVTGGYIDVTTTSGDTDGIDSNGNYVQTGGFVLVKGGSSSGNVSGSIDVDGTVTITGGTCVALGGVCETPVNSANAYVLGSVSFSSGSYSLKDSSGNEVISFTVDGSFSNGWICSDTLTTGSSYTLYRGADSIADWTQE",IL-23 production normalized to HK E. coli (set to 1.0),IL-23,1.1
same,muc2 gene expression vs HK E. coli without pre-treatment,muc2,slight inhibition
same,Serum LBP concentration vs DSS mice treated with vehicle,[1],significant reduction
same,Serum LBP concentration vs control peptide Gly2-GLP2,[1],greater impact on LBP concentration
same,Body weight (percent change from day 0) vs vehicle treated DSS mice,[2],significantly improved body weight
same,Gross pathology score (0-5) vs vehicle treated DSS mice,"[3]; 50 nmoles/kg i.p. b.i.d., 2.5% DSS",significantly improved gross pathology
same,Clinical scores vs DSS mice treated with Gly2-GLP2,[3],No differences
